B1: Nuclear factor NF-kappa-B p105 subunit (Homo sapiens), P19838 (parent)
chain: MAEDDPYLGRPEQMFHLDPSLTHTIFNPEVFQPQMALPTDGPYLQILEQPKQRGFRFRYVCEGPSHGGLPGASSEKNKKSYPQVKICNYVGPAKVIVQLVTNGKNIHLHAHSLVGKHCEDGICTVTAGPKDMVVGFANLGILHVTKKKVFETLEARMTEACIRGYNPGLLVHPDLAYLQAEGGGDRQLGDREKELIRQAALQQTKEMDLSVVRLMFTAFLPDSTGSFTRRLEPVVSDAIYDSKAPNASNLKIVRMDRTAGCVTGGEEIYLLCDKVQKDDIQIRFYEEEENGGVWEGFGDFSPTDVHRQFAIVFKTPKYKDINITKPASVFVQLRRKSDLETSEPKPFLYYPEIKDKEEVQRKRQKLMPNFSDSFGGGSGAGAGGGGMFGSGGGGGGTGSTGPGYSFPHYGFPTYGGITFHPGTTKSNAGMKHGTMDTESKKDPEGCDKSDDKNTVNLFGKVIETTEQDQEPSEATVGNGEVTLTYATGTKEESAGVQDNLFLEKAMQLAKRHANALFDYAVTGDVKMLLAVQRHLTAVQDENGDSVLHLAIIHLHSQLVRDLLEVTSGLISDDIINMRNDLYQTPLHLAVITKQEDVVEDLLRAGADLSLLDRLGNSVLHLAAKEGHDKVLSILLKHKKAALLLDHPNGDGLNAIHLAMMSNSLPCLLLLVAAGADVNAQEQKSGRTALHLAVEHDNISLAGCLLLEGDAHVDSTTYDGTTPLHIAAGRGSTRLAALLKAAGADPLVENFEPLYDLDDSWENAGEDEGVVPGTTPLDMATSWQVFDILNGKPYEPEFTSDDLLAQGDMKQLAEDVKLQLYKLLEIPDPDKNWATLAQKLGLGILNNAFRLSPAPSKTLMDNYEVSGGTVRELVEALRQMGYTEAIEVIQAASSPVKTTSQAHSLPLSPASTRQQIDELRDSDSVCDSGVETSFRKLSFTESLTSGASLLTLNKMPHDYGQEGPLEGKI

Variants of: B1
Details: with m3k8_human MAP3K8, P41279
m3k8_human MAP3K8, P41279, sequence (P41279 whole entry): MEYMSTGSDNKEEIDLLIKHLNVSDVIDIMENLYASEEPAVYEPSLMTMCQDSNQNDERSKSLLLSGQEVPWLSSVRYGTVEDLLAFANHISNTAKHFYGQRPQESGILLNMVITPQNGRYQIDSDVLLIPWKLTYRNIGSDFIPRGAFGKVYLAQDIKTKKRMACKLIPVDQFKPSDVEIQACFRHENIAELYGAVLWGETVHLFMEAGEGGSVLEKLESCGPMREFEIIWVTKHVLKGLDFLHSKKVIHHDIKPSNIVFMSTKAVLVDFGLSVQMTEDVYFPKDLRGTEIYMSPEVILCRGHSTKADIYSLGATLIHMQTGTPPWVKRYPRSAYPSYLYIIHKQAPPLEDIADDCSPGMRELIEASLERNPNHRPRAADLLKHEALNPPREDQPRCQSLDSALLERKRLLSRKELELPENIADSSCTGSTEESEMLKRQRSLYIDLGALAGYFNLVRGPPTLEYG

| effect of a mutation on the interaction | Variant |
| --- | --- |
| decreasing interaction | L841A |

From IntAct's records for PubMed 12832462
